Where a chain is given by its changes, count along the chain named. Values belong to the binder of their own block, whether it stands above or below them.
Legend:
human CLDN-18.2 [1] = target: T1, human CLDN-18.2 (human, UniProt P56856-2 1-261); experiment: cell-based or functional assay
human CLDN-18.2 [2] = target: T1, human CLDN-18.2; experiment: flow cytometry (FACS) on NUGC4-CLDN-18.2 cells, fluorescent secondary antibody, MFI
Text: Fluorescent signal was detected by FACS; the stronger the detected fluorescent signal, the higher the antibody affinity, that is, the higher the target binding activity. Antibody binding curves were fitted by GraphPad (FIGS. 4a, 4b and 4c), and the positive and negative controls were IMAB362 and anti-KLH hu-IgG1 antibody, respectively.

human CLDN-18.2 [3] = target: T1, human CLDN-18.2; experiment: flow cytometry on NUGC4-CLDN-18.2 cells, 4 C 30 min, fluorescent secondary antibody
Description: Finally, the fluorescence intensity was detected by BD CantoII flow cytometer. The stronger the fluorescent signal, the higher the affinity of the antibody to the target. The antibody dose-dependent binding curve was fitted by GraphPad (FIG. 1) and EC₅₀ was calculated (Table 3). The positive and negative controls were IMAB362 and anti-KLH hu-IgG1 antibody, respectively.

EC50 of ADCC effect (Jurkat ADCC NFAT luciferase reporter cells) (human CLDN-18.2 [1]): 0.0225 µg/mL
EC50 (read off the curve) (human CLDN-18.2 [2]): ~1 µg/mL
B1: humanized anti-CLDN-18.2 antibody JS012-Chi9-hu7-v2 (antibody, human IgG1, kappa, V domains shown)
VH: QVQLVQSGSELKKPGESVKVSCKASGYTFTNYGMNWVRQAPGQGLEWMGWINTYTGESTYADGFTGRFVFSMDTSASTAYLQISSLKAEDMAMYFCATLGYGNSLAYWGQGTLVTVSS
VL: DIVMTQSPDSLAVSLGERATINCKSSQSLLNSGNQRNYLTWYQQKPGQPPKLLIYWASTRESGVPDRFSGSGSGTDFTLTISSLQAEDVAVYYCQNNYFYPFTFGQGTKLEIKR
EC50 of CDC effect (complement serum, PI staining, relative killing rate) (human CLDN-18.2 [1]): 0.134 µg/mL

EC50 of ADCC effect (Jurkat ADCC NFAT luciferase reporter cells) (human CLDN-18.2 [1]): 0.0142 µg/mL
EC50 (human CLDN-18.2 [2]): 1.65 µg/mL
B2: humanized anti-CLDN-18.2 antibody JS012-Chi2-hu2-v3-2 (antibody, human IgG1, kappa, V domains shown)
VH: EVQLVESGGGLVQPGGSLRLSCAASGFTLNNFGMHWVRQAPGKGLEWVSSISSGSGTIYYADSVKGRFTISRDNPKNSLYLQMNSLRAEDTAVYYCARAYYGNGFSFWGQGTLVTVSS
VL: B1 VL with R36K, N97V, F99S, F102L
EC50 of CDC effect (complement serum, PI staining, relative killing rate) (human CLDN-18.2 [1]): 0.167 µg/mL

EC50 of ADCC effect (Jurkat ADCC NFAT luciferase reporter cells) (human CLDN-18.2 [1]): 0.0236 µg/mL
EC50 (read off the curve) (human CLDN-18.2 [2]): ~1 µg/mL
B3: humanized anti-CLDN-18.2 antibody JS012-Chi9-hu7 (antibody, human IgG1, kappa, V domains shown)
VH: B1 VH with V2I, M72S, S77R, M91T, M93V
VL: B1 VL
EC50 of CDC effect (complement serum, PI staining, relative killing rate) (human CLDN-18.2 [1]): 0.086 µg/mL

EC50 of ADCC effect (Jurkat NFAT-Luc/FcγRIIIaR reporter cells) (human CLDN-18.2 [1]): 0.0561 µg/mL
EC50 of CDC effect (complement serum, PI staining, flow cytometry) (human CLDN-18.2 [1]): 0.461 µg/mL
EC50 (human CLDN-18.2 [3]): 4.02 µg/mL
B4: anti-CLDN-18.2 chimeric antibody Chi-JS012-2 (antibody, V domains shown)
VH: DVQLVESGGGLVQPGGSRKLSCAASGFTLNNFGMHWVRQAPEKGLEWVACISSGSGTIYYADTVKGRFTISRDNPKNTLFLQMTSLRSEDTAMYYCARAYYGNGFSFWGQGTLVTVSS
VL: DIVMTQSPSSLTVTAGEKVTMSCKSSQSLLNSGNQKNYLTWYQQKPGQPPKLLIYWASTRESGVPDRFTGSGSGTDFTLTISSVQAEDLAIYYCQNVYSYPLTFGAGTKLEIK
notes: Fused to a human heavy chain constant region and a human kappa constant region cloned from human blood cells

EC50 of ADCC effect (Jurkat NFAT-Luc/FcγRIIIaR reporter cells) (human CLDN-18.2 [1]): 0.0432 µg/mL
EC50 of CDC effect (complement serum, PI staining, flow cytometry) (human CLDN-18.2 [1]): 0.265 µg/mL
EC50 (human CLDN-18.2 [3]): 2.92 µg/mL
B5: anti-CLDN-18.2 chimeric antibody Chi-JS012-27 (antibody, V domains shown)
VH: EVKLVESGGGLVKPGGSLKLSCAASGFTFSSYGMSWVRQTPEKRLECVATISGGDSYTYYPDSVRGRFTISRDIAKNNLYLQMSSLRSEDTALYYCARSYNGNSLPYWGQGTLVTVSS
VL: B4 VL with S7Y, S10F, A15T, K36R, T69A, V97N, S99F, L102F, A106S, I112V
notes: Human heavy chain constant region and human kappa constant region

EC50 of ADCC effect (Jurkat NFAT-Luc/FcγRIIIaR reporter cells) (human CLDN-18.2 [1]): 0.0436 µg/mL
EC50 of CDC effect (complement serum, PI staining, flow cytometry) (human CLDN-18.2 [1]): 0.316 µg/mL
EC50 (human CLDN-18.2 [3]): 3.22 µg/mL
B6: anti-CLDN-18.2 chimeric antibody Chi-JS012-9 (antibody, V domains shown)
VH: QIQLVQSGPELKKPGETVKISCKASGYTFTNYGMNWVKQAPGKGLKWMGWINTYTGESTYADDFKGRFAFSSETSARTAYLQINNLKNEDMATYFCATLGYGNSLAYWGQGTLVTVSS
VL: B4 VL with S7Y, S10F, A15T, K36R, T69A, V97N, S99F, L102F, A106S, I112V
notes: as for B5

EC50 of ADCC effect (Jurkat NFAT-Luc/FcγRIIIaR reporter cells) (human CLDN-18.2 [1]): 0.0495 µg/mL
EC50 of CDC effect (complement serum, PI staining, flow cytometry) (human CLDN-18.2 [1]): 0.358 µg/mL
EC50 (human CLDN-18.2 [3]): 3.19 µg/mL
B7: anti-CLDN-18.2 chimeric antibody Chi-JS012-10 (antibody, V domains shown)
VH: B6 VH
VL: B4 VL with S10F, E61D, S82T, I91V, Y92F, V97A, S99F, L102F, A106S
notes: as for B5

EC50 of ADCC effect (Jurkat NFAT-Luc/FcγRIIIaR reporter cells) (human CLDN-18.2 [1]): 0.0631 µg/mL
EC50 (human CLDN-18.2 [3]): 2.37 µg/mL
B8: anti-CLDN-18.2 chimeric antibody Chi-JS012-21 (antibody, V domains shown)
VH: B6 VH with D90G, T98R, L99S, G100Y, Y101N, A106P
VL: B4 VL with S7Y, S10F, A15T, K36R, T69A, V97N, S99F, L102F, A106S, I112V
notes: as for B5

EC50 of ADCC effect (Jurkat NFAT-Luc/FcγRIIIaR reporter cells), FIG. 2a (human CLDN-18.2 [1]): 0.036 µg/mL
EC50 of ADCC effect (Jurkat NFAT-Luc/FcγRIIIaR reporter cells), FIG. 2b (human CLDN-18.2 [1]): 0.0344 µg/mL
EC50 of CDC effect (complement serum, PI staining, flow cytometry) (human CLDN-18.2 [1]): 0.354 µg/mL
EC50 (human CLDN-18.2 [2]): 1.39 µg/mL
EC50 (read off the curve) (human CLDN-18.2 [2]): ~2 µg/mL
B9: IMAB362 (antibody, V domains shown)
VH: QVQLQQPGAELVRPGASVKLSCKASGYTFTSYWINWVKQRPGQGLEWIGNIYPSDSYTNYNQKFKDKATLTVDKSSSTAYMQLSSPTSEDSAVYYCTRSWRGNSFDYWGQGTTLTVSS
VL: DIVMTQSPSSLTVTAGEKVTMSCKSSQSLLNSGNQKNYLTWYQQKPGQPPKLLIYWASTRESGVPDRFTGSGSGTDFTLTISSVQAEDLAVYYCQNDYSYPFTFGSGTKLEIKR

EC50 of ADCC effect (Jurkat ADCC NFAT luciferase reporter cells) (human CLDN-18.2 [1]): 0.0358 µg/mL
EC50 (read off the curve) (human CLDN-18.2 [2]): ~1 µg/mL
B10: humanized anti-CLDN-18.2 antibody JS012-Chi27-hu3-v2 (antibody, human IgG1, V domains shown)
VH: EVQLVESGGGLVKPGGSLRLSCAASGFTFSSYGMSWVRQAPGKGLEWVSTISGGDSYTYYPDSVRGRFTISRDNAKNSLYLQMNSLRAEDTAVYYCARSYNGNSLPYWGQGTLVTVSS
VL: DIVMTQSPDSLAVSLGERATINCKSSQSLLNSGNQRNYLTWYQQKPGQPPKLLIYWASTRESGVPDRFSGSGSGTDFTLTISSLQAEDVAVYYCQNNYFYPFTFGQGTKLEIK
EC50 of CDC effect (complement serum, PI staining, relative killing rate) (human CLDN-18.2 [1]): 0.169 µg/mL

EC50 of ADCC effect (Jurkat ADCC NFAT luciferase reporter cells) (human CLDN-18.2 [1]): 0.0742 µg/mL
EC50 (read off the curve) (human CLDN-18.2 [2]): ~5 µg/mL
B11: humanized anti-CLDN-18.2 antibody JS012-Chi27-hu6-v3-2 (antibody, human IgG1, V domains shown)
VH: B10 VH with W47S, N74I
VL: B10 VL
EC50 of CDC effect (complement serum, PI staining, relative killing rate) (human CLDN-18.2 [1]): 0.715 µg/mL

Reference: patent publication US20240059771A1 (SHANGHAI JUNSHI BIOSCIENCES, published 2024)
